Assay results reported in patent publication US20170158757A1 (Bristol-Myers Squibb, published 2017).

T1: human IP-10 (human, UniProt P02778 22-98)
T1 construct: The HDX-MS text says 'recombinant full length human IP-10'; An IP10 dimer was placed in the crystal structure; also called huIP-10; CXCL10
T1 sequence: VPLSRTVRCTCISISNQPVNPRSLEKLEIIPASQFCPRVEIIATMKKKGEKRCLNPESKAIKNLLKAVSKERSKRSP

T2: human ITAC (human, UniProt O14625 22-94)
T2 construct: also called interferon-inducible T cell alpha chemoattractant; CXCL11
T2 sequence: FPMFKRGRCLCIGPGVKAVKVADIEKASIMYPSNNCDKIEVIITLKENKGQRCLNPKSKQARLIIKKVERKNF

T3: cynomolgus monkey IP-10 (cynomolgus monkey, UniProt A0A2K5WKN6 22-98)
T3 construct: endogenous serum IP-10 in the monkey studies; also called cynoIP-10; cyno IP10
T3 sequence: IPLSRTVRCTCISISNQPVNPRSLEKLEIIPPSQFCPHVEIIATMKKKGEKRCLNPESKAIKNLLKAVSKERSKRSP

T4: human MIG (human, UniProt Q07325 23-125)
T4 construct: also called monokine induced by gamma interferon; CXCL9
T4 sequence: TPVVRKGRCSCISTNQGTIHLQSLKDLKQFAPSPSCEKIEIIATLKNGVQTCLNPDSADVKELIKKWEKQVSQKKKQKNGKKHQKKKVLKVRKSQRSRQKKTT

T5: mouse IP-10 (mouse, UniProt P17515 22-98)
T5 sequence: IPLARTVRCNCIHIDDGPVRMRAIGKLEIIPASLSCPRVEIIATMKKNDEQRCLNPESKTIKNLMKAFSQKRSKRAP


Legend:
human IP-10 [1] = target: T1, human IP-10; test: Biacore SPR, huIP-10
human IP-10 [2] = target: T1, human IP-10; test: SPR (Biacore) at 37 C, IgG1, human IP-10
human ITAC = target: T2, human ITAC; test: Biacore SPR
cynomolgus monkey IP-10 [3] = target: T3, cynomolgus monkey IP-10; test: in vivo Kd estimated by PK/PD modeling of free drug, free and total serum IP-10 in cynomolgus monkeys; in vivo Kd from PK/PD modeling in cynomolgus monkeys, not a direct binding assay
human IP-10 [4] = target: T1, human IP-10; test: Biacore SPR, huIP-10 (text: limit of detection with the Biacore is 90 pM)
cynomolgus monkey IP-10 [5] = target: T3, cynomolgus monkey IP-10; test: cell-based or functional assay
human IP-10 [6] = target: T1, human IP-10; test: cell-based or functional assay
cynomolgus monkey IP-10 [7] = target: T3, cynomolgus monkey IP-10; test: cell-based or functional assay; remark: listed apart in the source
cynomolgus monkey IP-10 [8] = target: T3, cynomolgus monkey IP-10; test: in vivo Kd estimated by PK/PD modeling in cynomolgus monkeys
human IP-10 [9] = target: T1, human IP-10; test: whole cell binding assays with I125-IP-10 (CXCR3/300.19 and KM12SM cells)
human IP-10 [10] = target: T1, human IP-10; test: Biacore kinetic analysis
cynomolgus monkey IP-10 [11] = target: T3, cynomolgus monkey IP-10; test: Biacore SPR, cynoIP-10
human MIG [12] = target: T4, human MIG; test: Biacore SPR, MIG; Biacore, lot 3007: weak measured KD for MIG, about 17000 times weaker than for huIP-10 (0.01 nM)
mouse IP-10 = target: T5, mouse IP-10; test: Biacore-based binding studies
human IP-10 [13] = target: T1, human IP-10; test: Biacore-based binding studies
human MIG [14] = target: T4, human MIG; test: Biacore SPR, MIG
human MIG [15] = target: T4, human MIG; test: Biacore SPR
human IP-10 [16] = target: T1, human IP-10; test: SPR (Biacore) at 37 C, IgG1, human IP-10 (second row for IP10.1g1f)

Binder | koff (human IP-10 [1]) [s⁻¹] | kon (human IP-10 [1]) [M⁻¹ s⁻¹] | Kd (human IP-10 [2]) [nM] | koff (human IP-10 [2]) [s⁻¹] | kon (human IP-10 [2]) [M⁻¹ s⁻¹] | binding result (human ITAC) | Kd (cynomolgus monkey IP-10 [11]) [nM] | also measured
IP10.44 (antibody, human IgG1, kappa, V domains shown, Human IgG1 full-length antibody; also called BMS-986184; IP10.44-g1f) VH: QVQLVESGGGVVQPGRSLRLSCAASGFTFSEYGMHWVRQAPGKGLEWVAVIGFAGLIKGYADSVKGRFTISRDNSKNTLYLQMNSLRAEDTAVYYCAREGAGSNIYYYYGMDVWGQGTTVTVSS VL: not shown | 1e-07 | 11600 | 0.17 | 4e-06 | 26200 | no binding | 0.2 | Kd (cynomolgus monkey IP-10 [3]): 0.043 nM; Kd (human IP-10 [4]): 0.01 nM; IC50 of free serum IP-10 suppression against free drug concentration in cynomolgus monkeys (cynomolgus monkey IP-10 [5]): 0.223 nM; fold better potency than IP10.1, IL-6 secretion by hPBMCs (human IP-10 [6]): ~6 fold; fold greater potency relative to IP10.1, IL-12p40 secretion by hPBMCs (human IP-10 [6]): 4 fold; IC50 (read off the curve) (cynomolgus monkey IP-10 [7]): ~0.3 nM; fold more potent than IP10.1 (in vivo Kd) (cynomolgus monkey IP-10 [8]): ~150 fold; fold better potency than IP10.1 in blocking IP-10 binding to cells (human IP-10 [9]): ≥ 5 fold; estimated t1/2 (half-life of IP-10 association) (human IP-10 [10]): > 100 h; Kd (human MIG [12]): 168 nM; binding result (mouse IP-10): no binding; fold improvement of KD against IP10.1 (human IP-10 [13]): ≥ 50 fold
IP10.46 (antibody, human IgG1, kappa, V domains shown, IgG1 full-length variant of IP10.1; also called IP10.46-g1f) VH: QVQLVESGGGVVQPGRSLRLSCTASGFTFSQYGMHWVRQAPGKGLEWVAVISYGGDIKYYADSVKGRFTISRDNSKNTLYLQMNSLRAEDTAVYYCAREGEGSNIYYYYGMDVWGQGTTVTVSS VL: not shown | 1e-06 | 9600 | 0.12 | 2e-06 | 13500 | no binding | 0.19 | Kd (human IP-10 [1]): 0.11 nM; Kd (human MIG [14]): 77.5 nM
IP10.53 (antibody, human IgG1, kappa, V domains shown, IgG1 full-length variant of IP10.1; also called IP10.53-g1f) VH: QVQLVESGGGVVQPGRSLRLSCAASGFTFSDYGMHWVRQAPGKGLEWVAVISHNGAIKGYADSVKGRFTISRDNSKNTLYLQMNSLRAEDTAVYYCAREGDGSNIYYYYGMDVWGQGTTVTVSS VL: not shown | – | – | – | – | – | no binding | 0.22 | Kd (human MIG [14]): 54.3 nM
IP10.48 (antibody, human IgG1, kappa, V domains shown, IgG1 full-length variant of IP10.1; also called IP10.48-g1f) VH: QVQLVESGGGVVQPGRSLRLSCAASGFTFSNYGMHWVRQAPGKGLEWVAVIDFAGINKYYADSVKGRFTISRDNSKNTLYLQMNSLRAEDTAVYYCAREGEGSNIYFFYGMDVWGQGTTVTVSS VL: not shown | – | – | 0.34 | 5e-06 | 14100 | – | – | –
IP10.51 (antibody, human IgG1, kappa, V domains shown, IgG1 full-length variant of IP10.1; also called IP10.51-g1f) VH: QVQLVESGGGVVQPGRSLRLSCTASGFTFSDYGMHWVRQAPGKGLEWVAVIGYGGLIKGYADSVKGRFTISRDNSKNTLYLQMNSLRAEDTAVYYCAREGAGSSIYYYYGMDVWGQGTTVTVSS VL: not shown | – | – | 0.96 | – | – | – | – | –
IP10.45 (antibody, human IgG1, kappa, V domains shown, IgG1 full-length variant of IP10.1; also called IP10.45-g1f) VH: QVQLVESGGGVVQPGRSLRLSCTASGFTFSKHGMHWVRQAPGKGLEWVAVIGFAGVIKSYADSVKGRFTISRDNSKNTLYLQMNSLRAEDTAVYYCAREGEGSNIYFYYGMDVWGQGTTVTVSS VL: not shown | – | – | – | – | – | no binding | 4.74 | binding result (human MIG [15]): no binding
IP10.54 (antibody, human IgG1, kappa, V domains shown, IgG1 full-length variant of IP10.1; also called IP10.54-g1f) VH: QVQLVESGGGVVQPGRSLRLSCTASGFTFSQYGMHWVRQAPGKGLEWVAVISYGGDIKYYADSVKGRFTISRDNSKNTLYLEMNSLRAEDTAIYYCAREGEGSNIYYYYGMDVWGQGTTVTVSS VL: not shown | – | – | 0.25 | 4e-06 | 15400 | – | – | –

The next lines start with results.

koff (human IP-10 [1]) [s⁻¹] | kon (human IP-10 [1]) [M⁻¹ s⁻¹] | Kd (human IP-10 [2]) [nM] | koff (human IP-10 [2]) [s⁻¹] | kon (human IP-10 [2]) [M⁻¹ s⁻¹] | binding result (human ITAC) | Kd (cynomolgus monkey IP-10 [11]) [nM] | Binder | also measured
5e-07 | 13000 | – | – | – | no binding | 1.43 | IP10.52 (antibody, human IgG1, kappa, V domains shown, IgG1 full-length variant of IP10.1; also called IP10.52-g1f) VH: QVQLVESGGGVVQPGRSLRLSCTASGFTFSDYGMHWVRQAPGKGLEWVAVIGYGGLIKGYADSVKGRFTISRDNSKNTLYLQMNSLRAEDTAVYYCAREGAGSSVYYYYGMDVWGQGTTVTVSS VL: not shown | Kd (human IP-10 [1]): 0.04 nM; Kd (human MIG [14]): 73.5 nM
– | – | 0.41 | 6e-06 | 14700 | – | – | IP10.49 (antibody, human IgG1, kappa, V domains shown, IgG1 full-length variant of IP10.1; also called IP10.49-g1f) VH: QVQLVESGGGVVQPGRSLRLSCTASGFTFSQSGMHWVRQAPGKGLEWVAVIGFGGLIKSYADSVKGRFTISRDNSKNTLYLQMNSLRAEDTAVYYCAREGDGSGIYYYYGMDVWGQGTTVTVSS VL: not shown | –
– | – | 0.56 | 1.4e-05 | 24000 | – | – | IP10.47 (antibody, human IgG1, kappa, V domains shown, IgG1 full-length variant of IP10.1; also called IP10.47-g1f) VH: QVQLVESGGGVVQPGRSLRLSCAASGFTFSTHGMHWVRQAPGKGLEWVAVIGFGGLIKSYADSVKGRFTISRDNSKNTLYLQMNSLRAEDTAVYYCAREGDGSSLYFYYGMDVWGQGTTVTVSS VL: not shown | –
– | – | 1.64 | 1.7e-05 | 9300 | – | – | IP10.43 (antibody, human IgG1, kappa, V domains shown, IgG1 full-length variant of IP10.1) VH: QVQLVESGGGVVQPGRSLRLSCTASGFTFSSYGMHWVRQAPGKGLEWVAVIDFVGDTKYYTDSVKGRFTISRDNSKNTLYLQMNSLRAEDTAVYYCAREGAGSNIYYYYGMDVWGQGTTVTVSS VL: not shown | –
6.8e-05 | 8000 | 4.18 | 0.000151 | 36200 | no binding | 14.9 | IP10.1 (antibody, human IgG1, kappa, V domains shown, Human IgG1 (g1f) full-length antibody; Parent antibody of all variants; also called 6A5; antibody 6A5) VH: QMQLVESGGGVVQPGRSLRLSCTASGFTFSNNGMHWVRQAPGKGLEWVAVIWFDGMNKFYVDSVKGRFTISRDNSKNTLYLEMNSLRAEDTAIYYCAREGDGSGIYYYYGMDVWGQGTTVTVSS VL: not shown | Kd (human IP-10 [1]): 8.53 nM; Kd (human IP-10 [16]): 6.27 nM; koff (human IP-10 [16]): 0.000138 s⁻¹; kon (human IP-10 [16]): 22000 M⁻¹ s⁻¹; binding result (human MIG [15]): no binding; Kd (cynomolgus monkey IP-10 [3]): 6.5 nM; estimated t1/2 (half-life of IP-10 association) (human IP-10 [10]): ~3 h; binding result (mouse IP-10): no binding; Kd (human IP-10 [13]): ~5 nM
